Target: the molecule itself
Test: SEC

B1: wild-type hamster PrP 121–231 (domain or fragment)
chain: not shown
stoichiometry N: 8

From publication PMC3651167 (PLoS ONE, 2013)
